Reference: US20210230254A1
pKd: −log10 of the molar value.

Biological target: 2CC-core (HIV-1 YU2) (UniProt P35961)
Test: not given

Chain of 3BNC66 (antibody) (V domain): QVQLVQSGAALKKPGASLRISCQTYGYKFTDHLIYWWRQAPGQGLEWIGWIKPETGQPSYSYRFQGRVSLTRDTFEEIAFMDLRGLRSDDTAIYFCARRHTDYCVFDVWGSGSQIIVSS
Chain of 3BNC66 (antibody) (VL): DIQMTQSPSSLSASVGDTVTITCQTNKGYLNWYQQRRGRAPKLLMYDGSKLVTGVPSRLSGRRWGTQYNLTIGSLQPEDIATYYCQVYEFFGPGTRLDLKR
Chain of 3BNC156 (antibody) (VH): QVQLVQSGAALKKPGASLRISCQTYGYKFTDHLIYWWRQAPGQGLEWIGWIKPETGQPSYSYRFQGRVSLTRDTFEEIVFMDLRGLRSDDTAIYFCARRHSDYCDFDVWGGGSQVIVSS
Chain of 3BNC156 (antibody) (VL): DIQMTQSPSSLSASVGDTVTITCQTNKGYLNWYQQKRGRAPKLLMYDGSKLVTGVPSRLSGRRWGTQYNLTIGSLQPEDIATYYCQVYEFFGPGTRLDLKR
Chain of 12A12 (antibody) (VH): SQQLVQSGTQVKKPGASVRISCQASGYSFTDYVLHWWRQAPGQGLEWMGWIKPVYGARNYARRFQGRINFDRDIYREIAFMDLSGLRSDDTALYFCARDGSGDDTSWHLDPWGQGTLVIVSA
Chain of 12A12 (antibody) (VL): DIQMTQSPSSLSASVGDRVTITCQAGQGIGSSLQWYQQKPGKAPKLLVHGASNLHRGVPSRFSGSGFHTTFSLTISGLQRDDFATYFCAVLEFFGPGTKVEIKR
Chain of 8ANC195 (antibody) (V domain): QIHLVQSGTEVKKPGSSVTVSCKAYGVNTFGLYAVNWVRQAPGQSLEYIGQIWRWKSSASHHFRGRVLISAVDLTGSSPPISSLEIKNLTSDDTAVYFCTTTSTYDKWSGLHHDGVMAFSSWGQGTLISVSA
Chain of 8ANC195 (antibody) (VL): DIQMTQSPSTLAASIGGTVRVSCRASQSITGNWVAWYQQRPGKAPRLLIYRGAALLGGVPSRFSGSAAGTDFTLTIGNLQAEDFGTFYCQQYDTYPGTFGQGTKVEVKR
Chain of NIH45-46 (antibody) (VH): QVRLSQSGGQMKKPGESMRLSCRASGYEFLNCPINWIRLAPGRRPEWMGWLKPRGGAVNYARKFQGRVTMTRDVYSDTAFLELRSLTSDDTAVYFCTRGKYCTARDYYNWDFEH
Chain of NIH45-46 (antibody) (VL): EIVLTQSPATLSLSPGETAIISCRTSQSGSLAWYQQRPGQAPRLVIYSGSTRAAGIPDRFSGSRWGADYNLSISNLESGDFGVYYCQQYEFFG
Chain of 3BNC55 (antibody) (V domain): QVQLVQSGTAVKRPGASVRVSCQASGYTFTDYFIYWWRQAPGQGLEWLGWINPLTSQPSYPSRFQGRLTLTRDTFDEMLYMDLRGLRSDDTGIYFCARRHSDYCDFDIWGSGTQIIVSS
Chain of 3BNC55 (antibody) (VL): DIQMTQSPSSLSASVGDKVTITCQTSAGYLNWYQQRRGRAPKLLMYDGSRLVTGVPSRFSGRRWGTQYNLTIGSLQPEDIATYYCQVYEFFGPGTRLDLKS
Chain of 3BNC60 (antibody) (VH): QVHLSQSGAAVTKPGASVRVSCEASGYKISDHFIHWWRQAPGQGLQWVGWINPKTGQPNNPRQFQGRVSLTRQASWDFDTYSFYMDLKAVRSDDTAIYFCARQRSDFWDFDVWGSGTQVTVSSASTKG
Chain of 3BNC60 (antibody) (VL): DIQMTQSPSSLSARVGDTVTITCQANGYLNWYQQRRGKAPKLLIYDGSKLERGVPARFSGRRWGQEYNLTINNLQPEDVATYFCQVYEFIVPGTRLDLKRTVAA
Chain of 3BNC117 (antibody) (VH): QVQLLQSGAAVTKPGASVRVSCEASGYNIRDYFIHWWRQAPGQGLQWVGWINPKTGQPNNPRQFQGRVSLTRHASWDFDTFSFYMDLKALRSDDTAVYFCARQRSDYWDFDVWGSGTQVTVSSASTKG
Chain of 3BNC117 (antibody) (VL): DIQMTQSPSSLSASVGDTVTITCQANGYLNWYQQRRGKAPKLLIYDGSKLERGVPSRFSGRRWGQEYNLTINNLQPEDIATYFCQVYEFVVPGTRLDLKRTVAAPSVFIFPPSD
Chain of 12A21 (antibody) (VH): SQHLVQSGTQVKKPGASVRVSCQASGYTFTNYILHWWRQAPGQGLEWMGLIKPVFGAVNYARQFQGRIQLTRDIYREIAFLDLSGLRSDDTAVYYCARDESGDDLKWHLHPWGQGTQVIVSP
Chain of 12A21 (antibody) (VL): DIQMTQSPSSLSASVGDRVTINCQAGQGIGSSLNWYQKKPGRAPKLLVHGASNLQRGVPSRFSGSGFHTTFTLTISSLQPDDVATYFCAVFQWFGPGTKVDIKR

Substance | koff [s⁻¹] | kon [M⁻¹ s⁻¹]
3BNC55 (antibody) | 0.000815 | 31600
3BNC117 (antibody) | 0.00149 | 40500

Biological target: 2CC-core (HIV-1 YU2) (UniProt P35961)
Test: SPR, 2CC-core on chip, IgG injected

Substance | pKd | koff [s⁻¹] | kon [M⁻¹ s⁻¹]
1B2530 (antibody) | 8.23 | 0.000402 | 68300
1NC9 (antibody) | 8.34 | 0.000236 | 51100
3BNC55 (antibody) | 7.59 | – | –
3BNC60 (antibody) | 7.26 | 0.00164 | 30200
3BNC66 (antibody) | 7.47 | 0.00133 | 39600
3BNC117 (antibody) | 7.43 | – | –
3BNC156 (antibody) | 7.09 | 0.00153 | 18800
8ANC131 (antibody) | 7.18 | 0.00323 | 48800
8ANC134 (antibody) | 7.34 | 0.000957 | 20800
8ANC195 (antibody) | 7.26 | 0.00132 | 24100
12A12 (antibody) | 10.57 | 1.7e-06 | 63300
12A21 (antibody) | 8.74 | 0.00033 | 182000
NIH45-46 (antibody) | 8.36 | 0.000494 | 112000
